Data published in patent US20030082638A1, “Methods for screening osteogenic compounds” (priority 2001, published 2003).

Key:
[1] = system: ERK; assay: Western blot of ERK phosphorylation in murine osteoclast precursors; type: cell-based
Procedure: (§1) GST-RANKL rapidly activates MAP kinases in murine osteoclast precursors. Wild type C57BL/6 mice were purchased from Harlan Industries (Indianapolis, Ind.). For the isolation of osteoclast precursors, bone marrow macrophages (BMMs) were isolated from whole bone marrow of four to six week old mice and incubated in tissue culture dishes at 37° C. in 5% CO2. After 24 hours in culture, the non-adherent cells were collected and layered on a Ficoll Hypaque gradient and the cells at the gradient interface were collected. Cells were replated at 65,000/cm^2 in α-minimal essential medium, supplemented with 10% heat inactivated fetal bovine serum, at 37° C. in 5% CO2 in the presence of recombinant mouse M-CSF (10 ng.ml). Cells were treated with GST-RANKL on day 4 or 5. In the experiments addressing the activation of Akt, the cells were cultured in serum and M-CSF free medium for 24 hours prior to GST-RANKL stimulation.
(§2) Immunoblotting (Western blotting) of osteoclast precursors was performed according to the following instructions. Cytokine-treated or control monolayers of BMMs were washed twice with ice-cold PBS. Cells were lysed in the buffer containing 20 mM Tris (pH 7.5),150 mM NaCl, 1 mM EDTA, 1 mM EGTA, 1% Triton X-100, 2.5 mM sodium pyrophoshate, 1 mM β-glycerophosphate, 1 mM Na3PO4, 1 mM NaF, and 1×protease inhibitor cocktail. Fifty μg of cell lysates were boiled in the presence of SDS sample buffer (0.5 M Tris-HCl, pH 6.8, 10% w/v SDS, 10% glycerol, 0.05% w/v bromphenol blue) for 5 minutes and separated on SDS-PAGE, using 8% gels. Proteins were transferred to nitrocellulose membranes using a semi-dry blotter (Bio-Rad, Richmond, Calif.) and incubated in blocking solution (5% non-fat dry milk in tris-buffered saline containing 0.1% Tween 20) for 1 hour to reduce nonspecific binding. Membranes were then exposed to primary antibodies overnight at 4° C., washed three times, and incubated with secondary goat anti-mouse or rabbit IgG horseradish peroxidase-conjugated antibody for 1 hour. […]

[2] = system: Neo-natal mouse calvariae; assay: Ex vivo stimulation of bone formation in whole calvarial organ culture; type: cell-based
Procedure: One commonly used assay is a neonatal mouse calvaria assay. Briefly, four days after birth, the front and parietal bones of ICR Swiss white mouse pups are removed by microdissection and split along the sagittal suture. The bones are then incubated in a specified medium, wherein the medium contains either test or control compounds. Following the incubation, the bones are removed from the media, and fixed in 10% buffered formalin for 24-48 hours, decalcified in 14% EDTA for 1 week, processed through graded alcohols, and embedded in paraffin wax. Three micron sections of the calvaria are prepared and assessed using histomorphometric analysis of bone formation or bone resorption. Bone changes are measured on sections cut 200 microns apart. […]
Ex vivo stimulation of bone formation in whole calvarial organ culture. […] Purified GST-RANKL was then assayed for endotoxin contamination by limulus amoebocyte lysate assay, and quantitated for bioactivity by an in vitro osteoclastogenesis readout.
Test compositions were administered for-a period of 12 hours only at the initiation of the culture (1×) or once at initiation and once three days later, again for a duration of 12 hours (2×). After seven days, calvarial thickness was determined histomorphometrically and compared among the various control and experimental groups to assess bone formation. […]

[3] = system: p38; assay: Western blot of p38 phosphorylation in murine osteoblasts; type: cell-based
Procedure: (§3) GST-RANKL-induced activation of MAP kinases is prolonged in murine osteoblasts. Primary osteoblasts were isolated from neonatal murine calvaria by sequential enzymatic digestion. Briefly, calvaria were minced and incubated at room temperature for 20 minutes with gentle shaking in an enzymatic solution containing 0.1% collagenase, 0.05% trypsin, and 4 mM NA2EDTA in calcium- and magnesium-free phosphate buffered saline (PBS). This procedure was repeated to yield a total of six digests. The cells isolated from the last four to six digests were cultured in MEM containing 15% FBS, 50 μM ascorbic acid, and 10 mM β-glycerophosphate. Cells were maintained at 37° C. in a humidified atmosphere containing 6% C02, with daily replenishment of media and cytokines.
(§4) Following treatment with GST-RANKL at the indicated times and dosages, cells were lysed in RIPA buffer containing 10 mM Tris-HCl pH 7.4, 150 mM NaCl, 1% Nonidet P-40, 0.2% sodium deoxycholate, and 1 mM EDTA, with 1 mM Na3PO4, 1 mM NaF, and 1×protease inhibitor cocktail added immediately prior to use. Protein concentration was quantitated and standardized by Micro BCA Protein Assay (Pierce). […] Levels of total and phosphorylated ERK, JNK, p38, Akt, and IkBα were determined using primary and secondary antibodies according to the manufacturer's established protocols, with conventional chemiluminiscent detection. […]

[4] = system: JNK; assay: Western blot of JNK phosphorylation in murine osteoclast precursors; type: cell-based; conditions: after GST-RANKL stimulation
Procedure: as §1
(§5) Immunoblotting (Western blotting) of osteoclast precursors was performed according to the following instructions. Cytokine-treated or control monolayers of BMMs were washed twice with ice-cold PBS. Cells were lysed in the buffer containing 20 mM Tris (pH 7.5),150 mM NaCl, 1 mM EDTA, 1 mM EGTA, 1% Triton X-100, 2.5 mM sodium pyrophoshate, 1 mM β-glycerophosphate, 1 mM Na3PO4, 1 mM NaF, and 1×protease inhibitor cocktail. […]

[5] = system: Akt; assay: Western blot of Akt phosphorylation in murine osteoclast precursors; type: cell-based
Procedure: as §1, §5

[6] = system: JNK; assay: Western blot of JNK phosphorylation in murine osteoblasts; type: cell-based
Procedure: as §3, §4

[7] = system: Mice, C3H/HeN; assay: In vivo stimulation of bone formation in mice, subcutaneous administration; parameters: species or system mouse; conditions: 100 micrograms subcutaneously once a day for nine days, vs GST control
Procedure: In vivo stimulation of bone formation in mice. Mice, C3H/HeN (Harlan, Indianapolis, Ind.) were administered 100 micrograms GST (control) or 100 micrograms GST-RANKL as obtained in Example 1, subcutaneously, once a day for nine days. […] Upper panels illustrate metaphyseal bone, which is shown at higher magnification in lower panels. […] Dual-energy X-ray absorptiometry (DEXA) analysis of GST or GST-RANKL administered mice was also conducted using standard procedures.

[8] = system: Akt; assay: Western blot of Akt phosphorylation in murine osteoblasts; type: cell-based
Procedure: as §3, §4

[9] = system: c-Fos; assay: Western blot of c-Fos activation following GST-RANKL treatment of cells; type: cell-based; conditions: osteoblasts and osteoblast precursor cells; FIG. 9, 0-120 minutes
Procedure: Time points at which activation was measured were 0, 30, 60 and 120 minutes following exposure of cells to GST-RANKL. B-actin was used as a control.

[10] = system: IkBα; assay: Western blot of IkBα phosphorylation in murine osteoblasts; type: cell-based
Procedure: as §3, §4

[11] = system: ERK1/2; assay: Western blot of ERK1/2 activation in murine osteoblast precursors; type: cell-based
Procedure: as §3
(§6) Following treatment with GST-RANKL at the indicated times and dosages, cells were lysed in RIPA buffer containing 10 mM Tris-HCl pH 7.4, 150 mM NaCl, 1% Nonidet P-40, 0.2% sodium deoxycholate, and 1 mM EDTA, with 1 mM Na3PO4, 1 mM NaF, and 1×protease inhibitor cocktail added immediately prior to use. Protein concentration was quantitated and standardized by Micro BCA Protein Assay (Pierce). Lysates were denatured by heat in Laemmli buffer, resolved by SDS-PAGE, and transferred onto nitrocellulose. Levels of total and phosphorylated ERK, JNK, p38, Akt, and IkBα were determined using primary and secondary antibodies according to the manufacturer's established protocols, with conventional chemiluminiscent detection. Membranes were stripped between hybridizations in PBS containing […] β-mercaptoethanol and 2% SDS.
GST-RANKL-induced ERk1/2 activation is prolonged in murine osteoblast precursors. Osteoblast precursors were isolated and maintained according to the procedures set forth in Example 5. The immunoblotting was performed in the same manner as immunoblotting in Example 3.

[12] = system: Primary calvarial osteoblasts; assay: Alkaline phosphatase (AP) activity in osteoblasts following GST-RANKL exposure; type: cell-based; conditions: 50 ng/ml
Procedure: AP activity following RANKL exposure in osteoblasts. Primary calvarial osteoblasts were cultured in MEM containing 15% FBS, 50 μM ascorbic acid, and 10 mM β-glycerophosphate. Cells were maintained at 37° C., with daily replenishment of media and cytokines. Osteoblast alkaline phosphatase (AP) activity, a direct measure of osteoblast differentiation and function, was quantitated by addition of a calorimetric substrate, 5.5 mM p-nitrophenyl phosphate. The cells were then exposed to GST-RANKL, administered in different regimens. Pulsatile exposure to 50 ng/ml GST-RANKL was provided as 1, 3, 6, 8, or 24 hours of total exposure per 48-hour treatment window. After 4 such 48-hour treatments, AP activity was quantitated (±S.D.) and normalized to total protein levels.

[13] = system: Mice; assay: In vivo stimulation of bone formation in mice, intramedullary femur injection, DEXA; parameters: species or system mouse; conditions: 100 micrograms intramedullary once a day for nine days; versus GST control; day 9
Procedure: In vivo stimulation of bone formation in mice results in 24% increase. Mice were anesthetized with a Ketamine/Xylazine cocktail (10 mg/kg ketamine and 10 mg/kg xylazine IP) and placed in left lateral recumbancy. The major trochanter and lateral femoral condyle of the right femur were identified and the intramedullary injection site was equidistant between these landmarks. Injections of 100 micrograms GST (control) or 100 micrograms GST-RANKL were made once a day for nine days with 29 gauge needles on tuberculin syringes.
On day 9 the mice were re-anesthetized with Ketamine/Xylazine cocktail (10 mg/kg ketamine and 10 mg/kg xylazine IP) and dual energy x-ray absorptiometry (DEXA, Piximus) analysis was done on each animal. Plain radiographs were taken immediately following DEXA analysis (Faxitron, KV 0.15, time=20 sec). Animals were sacrificed by CO2 asphyxiation and both femurs harvested for histological analysis. The femurs were fixed in 10% buffered formalin for 48 hours and decalcified for 1 week. The results, showing a 24% increase in bone density of the femur of GST-RANKL treated mice versus the control, are shown in FIG. 10.

[14] = system: p38; assay: Western blot of p38 phosphorylation in murine osteoclast precursors; type: cell-based
Procedure: as §1, §2

[15] = system: ERK; assay: Western blot of ERK phosphorylation in murine osteoblasts; type: cell-based
Procedure: as §3, §6

[16] = after RANK/GST-RANKL interaction

B1: GST-RANKL: fusion protein of glutathione S-transferase (GST) and murine RANKL residues 158-316, expressed in Escherichia coli, affinity purified (protein)
chain: KPEAQPFAHLTINAASIPSGSHKVTLSSWYHDRGWAKISNMTLSNGKLRVNQDGFYYLYANICFRHHETSGSVPTDYLQLMVYVVKTSIKIPSSHNLMKGGSTKNWSGNSEFHFYSINVGGFFKLRAGEEISIQVSNPSLLDPDQDATYFGAFKVQDID
modifications: left off: a dimerising Fc or GST
For B1, the “time at which ERK phosphorylation was detected” value ([1]; after GST-RANKL stimulation) was 5 min, the “time of peak ERK phosphorylation” value [1, 16] was 10 min and the “time at which ERK phosphorylation was undetectable” value ([1]; after the interaction) was 30 min. The “calvarial thickness at the highest dose tested” value ([2]; 100 ng/ml, after seven days) was “doubled”, the calvarial thickness ([2]; administered 1× or 2× for 12 hours, histomorphometry after seven days) was “dose-dependent increase” and the “p38 activation at the time of GST-RANKL stimulation” value [3] was “detectable”. For the same molecule, the “duration for which p38 activation could be detected” value ([3]; after stimulation) was “at least 60 minutes”, the “time at which JNK was phosphorylated” value [4] was 15 min and the “time by which phosphorylated JNK was undetectable” value [4] was no more than 30 min. The “Akt phosphorylation at the time of GST-RANKL stimulation” value ([5]; 0 minutes) was “detectable phosphorylation”, the “time of peak Akt activation” value ([5]; after GST-RANKL stimulation) was 15 min and the “JNK activation at the time of GST-RANKL stimulation” value [6] was “detectable”. For the same molecule, the “duration for which JNK activation could be detected” value ([6]; after stimulation) was “at least 60 minutes”, the “bone mineral density (DEXA)” value ([7]; tibial metaphyses) was “significant increase” and the “bone mass (histological examination of tibia)” value [7] was “marked increase”. The cortical thickness [7] was “massive increase”, the “numbers of activated osteoblasts (histological examination of tibia)” value [7] was “net increase” and the “Akt activation at the time of GST-RANKL stimulation” value [8] was “detectable”. The “duration for which Akt activation could be detected” value ([8]; after stimulation) was “at least 60 minutes”, the “activation of c-Fos” value [9] was “prolonged activation” and the “time until which IkBα phosphorylation increased (end of the assay)” value [10] was 60 min. The “time at which IkBα phosphorylation was detected” value ([10]; after stimulation) was 10 min, the “time of peak kinase activation as stated in the description” value ([11]; osteoblast precursor cells, GST-RANKL stimulation) was 5 to 10 min and the “time up to which ERK activation increased (length of the assay)” value ([11]; osteoblast precursors) was 60 min. The “time at which ERK activation was first detected” value ([11]; osteoblast precursors, after GST-RANKL stimulation) was 10 min, the “exposure window giving the maximum anabolic effect (AP activity)” value ([12]; 1, 3, 6, 8 or 24 hours exposure per 48-hour window, 4 treatments) was 8 h and the AP activity ([12]; administered in an intermittent fashion) was “increase”. The “increase in bone density of the femur (DEXA)” value [13] was 24%, the “time at which p38 phosphorylation was detected” value ([14]; after GST-RANKL stimulation) was 5 min and the “time of peak p38 phosphorylation” value [14, 16] was 10 min. For the same molecule, the “time at which p38 phosphorylation was undetectable” value ([14]; after the interaction) was 30 min, the “time at which ERK activation could still be detected” value ([15]; after GST-RANKL stimulation) was 60 min and the “time by which both ERKs were activated” value ([15]; after GST-RANKL stimulation) was no more than 5 min. The “time of peak ERK activation” value [15, 16] was 10 min.
